Assay results as given in patent US20210047373A1, “BETA BARREL POLYPEPTIDES AND METHODS FOR THEIR USE” (UNIVERSITY OF WASHINGTON, priority 2018, published 2021).
Numbering of substitutions follows the chain as printed. Marks after values point to notes of the source that are not given here.

B1: b11: SEQ ID NO:4; monomeric design with disulfide bond, activates DFHBI fluorescence (protein)
chain: MCRAASLLPGTWQVTMTNEDGQTSQGQMHFQPRSPYTLDVKAQGTMSDGRPIQGKGKVTCKTPDTMDVDITYSDGKQVQGQVTLDSPTQFKFDVTTSDGSKVTGTLQRQE
modifications: (1)..(1) optionally absent
B2: mFAP2.3: SEQ ID NO:58 (protein)
chain: MSRAAQLLPGTWQVTMTNEDGQTSQGQMHFQPRSPYTMDVVAQGTISDGRPIVGYGKVTVKTPDTLDVDITYPSLGNIKAQGQITMDSPTQFKFDATTKGENDFHGRLTGTLQRQE
modifications: (1)..(1) optionally absent
B3: mFAP2.5: SEQ ID NO:60; mutations of mFAP2.3 and mFAP2.4 combined (protein)
chain: B2 chain with M28W, V40I, V58A, F94W
modifications: (1)..(1) optionally absent
B4: mFAP2.4: SEQ ID NO:59 (protein)
chain: B2 chain with V40I, V58A, E101A, N102G, D103N, H105T
modifications: (1)..(1) optionally absent
B5: mFAP1: SEQ ID NO:33; variant of b11L5F.2 (protein)
chain: MSRAAQLLPGTWQTTMTNEDGQTSQGQMHFQPRSPYTLDVVAQGTISDGRPISGYGKVTVKTDDTLDVDITYPSLGNIKVQGQVTMDSPTQFKFDATTSDGKKLTGTLQRQE
modifications: (1)..(1) optionally absent
B6: b11L5F: SEQ ID NO:25; b11 with a 5-residue fifth turn (protein)
chain: MCRAASLLPGTWQVTMTNEDGQTSQGQMHFQPRSPYTLDVKAQGTISDGRPISGKGKVTCKTPDTMDVDITYPSLGNMKVQGQVTLDSPTQFKFDVTTSDGSKVTGTLQRQE
modifications: (1)..(1) optionally absent
B7: b11L5F.1: SEQ ID NO:26; b11L5F triple mutant 83I_95A_103L without disulfide (protein)
chain: B6 chain with C2S, K41V, K55Y, C60V, V84I, V96A, V104L
modifications: (1)..(1) optionally absent
B8: b11L5F.2: SEQ ID NO:27; second round design from b11L5F.1 (protein)
chain: MNRAAQLLPGTWQVTMTNEDGQTSQGQMHFQPRSPYTLDIVAQGTISDGRPISGYGKVTVKTPDTMHVNITYPSLGNIKVQGQITLDSPTQFTWNSTTSDGKKLTGTLQRQE
modifications: (1)..(1) optionally absent
B9: b32: SEQ ID NO:12; monomeric design, activates DFHBI fluorescence (protein)
chain: MGQEVAQVLPGDWQVHMTNEDGQTSTGTVTFQPRSPYTFDVKFKGTMSDGRPITGKGKMTMKTPDTMDIDVTYSDGKKVTGKVTMKSPTQLDWDLTTSDGSKVTGTSHRQE
modifications: (1)..(1) optionally absent

What was measured:
[1] = previously reported value, cited from earlier work
[2] = Photophysical characterization (absorbance, excitation, emission, extinction coefficient, quantum yield); type: physicochemical
[3] = Circular dichroism, thermal and GuHCl denaturation; type: physicochemical; settings: CD
Procedure: Circular dichroism (CD). Purified protein samples were prepared at 0.5 mg/ml in 20 mM Tris buffer (150 mM NaCl, pH8.0) or PBS buffer (25 mM phosphate, 150 mM NaCl, pH7.4). Wavelength scans from 195 nm to 260 nm were recorded at 25 degrees Celsius, 75 degrees Celsius, 95 degrees Celsius and cooling back to 25 degrees Celsius. Thermal denaturation was monitored at 220 nm or 226 nm from 25 degrees Celsius to 95 degrees Celsius. Near-UV wavelength scan from 240 nm to 320 nm and tryptophan fluorescence emission were recorded in the absence and presence of 5M guanidinium chloride (GuHCl). Chemical denaturation in GuHCl was monitored by both tryptophan fluorescence and near-UV CD signal at 285 nm. The concentration of the GuHCl stock solution was measured with a refractometer (Spectronic Instruments, Inc). Far-UV CD experiments were performed on an AVIV model 420 CD spectrometer (Aviv Biomedical, Inc). Near-UV CD and tryptophan fluorescence experiments were performed on a Jasco J-1500 CD spectrometer (Jasco, Inc). Protein concentrations were determined by 280 nm absorbance with a NanoDrop™spectrophotometer (ThermoScientific, Inc). Melting temperatures were estimated by smoothing the sparse data with a Savitsky-Golay filter of order 3 and approximating the smoothed data with a cubic spline to compute derivatives. Reported Tm values are the inflection points of the melting curves.

[4] = Fluorescence activation / brightness with DFHBI; type: biochemical; settings: for Activation of DFHBI fluorescence: monomeric designs; for Fluorescence brightness, 100 nM DFHBI / Fluorescence brightness, 10 μM DFHBI: normalized 0 to 1 across all three chromophores, average ± SD of two protein concentrations; for Increase in fluorescence of the phenolate form of DFHBI: pH 7.36, versus mFAP2.2
Procedure: (§1) Fluorescence binding assay. Protein-activated DFHBI fluorescence signals were measured in 96-well plate format (Corning 3650) on a Synergy neo2 plate reader (BioTek, Inc) with λex=450 nm or 460 nm and λem=500 nm or 510 nm. Binding reactions were performed at […] in PBS pH7.4 buffer. Protein concentrations were determined by 280 nm absorbance as described above. DFHBI (Lucerna, Inc) were resuspended in DMSO as instructed to make 100 mM stock and diluted in PBS to 0.5-10 μM. Approximate emission spectra were recorded for active designs from 490 to 600 nm.
(§2) Table 3A-C. Brightness and chromophore affinities of selected mFAP variants. Fluorescence brightness measurements at 10 μM (top table) and 100 nM (middle table) chromophore concentrations were normalized from 0 to 1 across all three chromophores (DFHBI, DFHBI-1T, and DFHO), and the normalized values for two protein concentrations tested for each chromophore at each chromophore concentration were averaged and standard deviations of the average computed. Reported values are the normalized averages and standard deviations of the means for each chromophore concentration and each chromophore. Reported relative densitometry values are the relative densitometry values normalized from 0 to 1 and represent how well each design expresses relative to one another in Lemo21(DE3) E. coli cultures. Thermodynamic dissociation constants (bottom table) are obtained by non-linear least squares fitting of chromophore titrations (n=1) to a single binding site isotherm, and values reported with the standard deviation of the fit. Where the obtained Kd values are below the protein concentration tested, the Kd and standard deviation of the fit are reported in parentheses. Values with “N/D” were not determined.

[5] = Fluorescence brightness with DFHBI-1T; type: biochemical; settings: normalized 0 to 1 across all three chromophores; average ± SD of two protein concentrations
Procedure: as §2

[6] = Chromophore titration, fit to single binding site isotherm: DFHO; settings: n=1 titration; ± SD of the fit; Table 3C
Procedure: as §2

[7] = Chromophore titration, fit to single binding site isotherm: DFHBI; settings: ± SD of the fit
Procedure: as §1, §2

[8] = Chromophore titration, fit to single binding site isotherm: DFHBI-1T; settings: n=1 titration; ± SD of the fit; Table 3C
Procedure: as §2

[9] = Fluorescence brightness with DFHO; type: biochemical; settings: normalized 0 to 1 across all three chromophores; average ± SD of two protein concentrations
Procedure: as §2

[10] = tested on: E. coli, yeast, and mammalian cells; test: Confocal imaging of cells expressing mFAPs with DFHBI; type: cell-based; settings: 20 μM DFHBI
Procedure: To determine whether the designed DFHBI-binding fluorescence-activating proteins function in living cells, we imaged mFAP1- and mFAP2-DFHBI complexes in E. coli, yeast, and mammalian cells by confocal microscopy. […] The quantum yield of mFAP1 and mFAP2 in complex with DFHBI is 2.0% and 2.1% respectively (Table 2).
Confocal image acquisition. Mammalian cell imaging of mFAP1 and mFAP2 was performed in NIH3T3 cells (Flp-In-3T3, Thermo Fisher Scientific, Inc). NIH3T3 cells were cultured in high-glucose DMEM, 4 mM L-glutamine, 10% fetal bovine serum (FBS, Life Technologies, Inc) at 37 degrees Celsius, 5% CO2. Cells were plated at 4×10^4 cells/mL in 35 mm glass-bottomed dishes (Matek, Inc) that were coated with poly-D-lysine. Cells were transfected 24 hours after plating with Lipofectamine™ 3000 (Thermo Fisher Scientific, Inc) at a ratio of 3 μL reagent:1 μL DNA, according to manufacturer's instructions, with […] plasmids of mFAPs or mFAP fusions (1.25 μg mCherry™ plasmid was added to the cytosolic constructs as a transfection control). Right before imaging, cell media was replaced with FluorBrite™ DMEM (Thermo Fisher Scientific, Inc) media supplemented with GlutaMax™ (Thermo Fisher Scientific, Inc) and 10% v/v FBS, and 20 μM DFHBI. […] A white light laser of 488 was used to excite the DFHBI and detected by a HyD detector, over a range of 495-550 nm. […]

[11] = n=1 titration, Table 3C, read-out: DFHBI Kd
[12] = obtained Kd below the protein concentration tested, read-out: DFHBI Kd, fit value in parentheses

Molecule | Fluorescence brightness, 100 nM DFHBI-1T [5] | Fluorescence brightness, 10 μM DFHBI-1T [5] | Kd [6] [µM] | Kd [7, 11] [µM] | Kd [8] [µM] | Fluorescence brightness, 100 nM DFHO [9] | Fluorescence brightness, 10 μM DFHO [9] | Fluorescence brightness, 100 nM DFHBI [4] | Fluorescence brightness, 10 μM DFHBI [4] | other results
CC1=N/C(=C\c2cc(F)c(O)c(F)c2)C(=O)N1CC(F)(F)F [DFHBI-1T] | – | – | – | – | – | – | – | – | – | Extinction Coefficient ([1]; Table 4): 35,400^† M^−1 · cm^−1; λabs ([1]; Table 4): 422^† nm; λem ([1]; Table 4): 495^† nm; λex ([1]; Table 4): 426^† nm; Reported Quantum Yield [1]: 0.00098^†
B1 | – | – | – | – | – | – | – | – | – | Absorption peak with DFHBI bound [2]: 450 nm; Emission peak with DFHBI bound [2]: 510 nm; Thermal stability [3]: undergo reversible thermal melting transitions; Activation of DFHBI fluorescence [4]: found to activate DFHBI fluorescence
B2 | 0.52 ± 0.02 | 0.67 ± 0.04 | 10.4 ± 3.59 | < 0.5 | 1.58 ± 0.34 | 0.02 ± 0.0 | 0.01 ± 0.0 | 0.15 ± 0.0 | 0.2 ± 0.03 | Kd [7, 12]: 0.146 µM; Increase in fluorescence of the phenolate form of DFHBI [4]: ~1.1 fold
B3 | 0.01 ± 0.0 | 0.01 ± 0.0 | 34.2 ± 13.7 | 1.13 ± 0.09 | 52.5 ± 7.48 | 0.01 ± 0.0 | 0.0 ± 0.0 | 0.83 ± 0.02 | 0.8 ± 0.03 | –
B4 | 0.01 ± 0.0 | 0.01 ± 0.0 | 32.7 ± 14.2 | 1.31 ± 0.1 | 38.7 ± 5.71 | 0.01 ± 0.0 | 0.0 ± 0.0 | 0.69 ± 0.03 | 0.69 ± 0.06 | Increase in fluorescence of the phenolate form of DFHBI [4]: ~3.4 fold
B5 | 0.01 ± 0.0 | 0.01 ± 0.0 | 7.8 ± 2.89 | < 0.5 | 10.8 ± 1 | 0.01 ± 0.0 | 0.0 ± 0.0 | 0.18 ± 0.0 | 0.13 ± 0.02 | Kd [7, 12]: 0.496 µM; In vivo fluorescence activation [10]: showed in vivo fluorescence activation; Quantum yield in complex with DFHBI ([2]; absolute): 2.0%
B6 | – | – | – | – | – | – | – | – | – | Fluorescence activity in comparison with b11 ([4]; 100 μM protein+10 μM DFHBI): 5.2 fold; Increase of fluorescence intensity ([4]; fifth turn changed to a five-residue turn, versus b11): fourfold
B7 | – | – | – | – | – | – | – | – | – | Higher DFHBI fluorescence ([4]; substitutions at V103, V95, V83 of b11L5F): tenfold
B8 | – | – | – | – | – | – | – | – | – | Increase of fluorescence, second round of design ([4]; versus b11L5F.1): approximately 1.4 fold
B9 | – | – | – | – | – | – | – | – | – | Absorption peak with DFHBI bound [2]: 450 nm; Emission peak with DFHBI bound [2]: 510 nm; Thermal stability [3]: undergo reversible thermal melting transitions; Activation of DFHBI fluorescence [4]: found to activate DFHBI fluorescence
